Results: publication PMC6429324

Legend:
[1] = system: bevacizumab (Avastin) (humanized IgG (organism not stated)); experiment: bead pull-down, HT-RPLC of residual solution; details: 50 ug/mL bevacizumab, Plasma samples diluted 10x in 175 mM trehalose, 42 mM NaH2PO4, 8 mM Na2HPO4, 0.4% Tween-20, pH 7.4, 0.1% peptone, room temperature, 1 h, bead comparison: beads …; for fraction of antibody not captured (% not captured): immobilization effect, 5'-aminohexyl
[2] = system: bevacizumab (Avastin) (humanized IgG (organism not stated)); experiment: bead pull-down, HT-RPLC of eluate; details: 10 ug/mL in human plasma, 5'-biotin, Plasma samples diluted 10x in 175 mM trehalose, 42 mM NaH2PO4, 8 mM Na2HPO4, 0.4% Tween-20, pH 7.4, 0.1% peptone, room temperature, 1 h, bead comparison: beads …

| Sequence | fraction of antibody not captured (% not captured) ([1]; carboxylic acid beads) | fraction of antibody not captured (% not captured) ([1]; tosylactivated beads) | binding signal ([2]; first use of beads) | binding signal ([2]; third use of beads) | binding signal ([1]; streptavidin beads, 5'-biotin) |
| --- | --- | --- | --- | --- | --- |
| GCGGTTGGTGGTAGTTACGTTCGC [anti-bevacizumab DNA aptamer, 5'-aminohexyl] | 85.5 | 75.8 |  |  |  |
| GCGGTTGGTGGTAGTTACGTTCGC [anti-bevacizumab DNA aptamer, 5'-biotin] |  |  | 101 % recovery | 97.3 % recovery | > 99.8 % captured |
